Assays:
L7Ae = L7Ae (UniProt O29494 1-119); test: SPR; no signal up to 2 uM RNA; SPR as in ref 9 (L7Ae chip, RNA analyte); resin and plate assays in assay buffer at room temperature; buffer composition, salt and pH not given in the material; settings: protein: recombinant; tags: His tag (pET28b-His-L7Ae-cmyc-His named as the L7Ae expression plasmid); immobilized on SPR chip
[1] = target: Alexa Fluor 633-labelled L7Ae (UniProt O29494 1-119); test: pull-down; fBCD35g resin removes most free L7Ae; SPR as in ref 9 (L7Ae chip, RNA analyte); resin and plate assays in assay buffer at room temperature; buffer composition, salt and pH not given in the material; settings: protein: recombinant; tags: His tag; Alexa Fluor 633 by amine coupling; label: resin-immobilized
Chain of Alexa Fluor 633-labelled L7Ae (O29494 whole entry): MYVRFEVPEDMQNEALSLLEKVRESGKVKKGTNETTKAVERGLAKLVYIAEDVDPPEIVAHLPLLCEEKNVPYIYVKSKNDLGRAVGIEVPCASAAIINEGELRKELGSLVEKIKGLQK

Chain of L7Ae (O29494 whole entry): as above

## GGUUCAGCUGACUCGAAAGGGCGUGAUGCUGAAUC (XNA, 2'-fluoro on all pyrimidines) [BCD35 2'-fPy-RNA]
L7Ae
  binding result: no binding

## GGUUCAGCUGAGGCGAAAGCCGGUGAUGCUGAAUC (XNA, 2'-fluoro on all pyrimidines) [fBCD35g immobilized on resin]
[1]
  binding result: binds
